From the RNAGym collection of RNA variant scans (doi:10.7554/elife.90254)

B1: OR4K15 (parent)
chain: GUUAACGGUCAUAGGCCAUGGAAACUAGGAGCACCAUUUCGCUGCCAGUGAAGAAAUGAACAAAGAAAAUCUGGGCCAGGCAGGCAUCAAAAGAAAUAGUCUUGCGCUCAACCAGAAAGUCUGUAAUCAUUUUAAGGGUA

Variants of: B1
Experiment: self-cleavage, relative activity (ratio to wild type); higher = more cleavage; in vitro, sequencing; the parent is a self-cleaving ribozyme
In the case of GUUAACGGUCAUAGGCCAUGGAAACUAGGAGCACCACUUCGCUGCCAGUGAAGAAAUGAACAAAGAAAAUCUGGGCCAGGCAGGCAUCAAAAGAAAUAGUCUUGCGCUCAACCAGAAAGUCUGUAAUCAUUUUAAGGGCA, the self-cleavage is reported as 1.72.
GUUAACGGUCAUAGGCCAUGGAAACUAGGAGCACCACUUCGCUGCCAGUGAAGAAAUGAACAAAGAAAAUCUGGGCCAGGCAGGCAUCAAAAGAAAUAGUCUUGCGCUCAACCAGAAAGUCUGUAAUCAUCUUAAGGGUA gave a self-cleavage of 1.15.
In the case of GUUAACGGUCAUAGGCCAUGGAAACUAGGAGCACCACUUCGCUGCCAGUGAAGAAAUGAACAAAGAAAAUCUGGGCCAGGCAGGCAUCAAAAGAAAUAGUCCUGCGCUCAACCAGAAAGUCUGUAAUCAUUUUAAGGGUA, the self-cleavage is reported as 1.49.
In the case of GUUAACGGUCAUAGGCCAUGGAAACUAGGAGCACCACUUCGCUGCCAGUGAAGAAACGAACAAAGAAAAUCUGGGCCAGGCAGGCAUCAAAAGAAAUAGUCUUGCGCUCAACCAGAAAGUCUGUAAUCAUUUUAAGGGUA, the self-cleavage is reported as 1.18.
For GUUAACGGUCAUAGGCCAUGGAAACUAGGAGCACCACUUCGCUGCCAGUGAAGAAAUGAACAAAGAAAAUCUGGGCCAGGCAGGCACCAAAAGAAAUAGUCUUGCGCUCAACCAGAAAGUCUGUAAUCAUUUUAAGGGUA, the self-cleavage was 0.99.
Variant GUUAACGGUCAUAGGCCAUGGAAACUAGGAGCACCACUUCGCUGCCAGUGAAGAAAUGAACAAAGAAAAUCUGGGCCAGGCAGGCAUCAAAAGAAAUAGUCUUGCGCUCAACCAGAAAGUCUGUAAUCACUUUAAGGGUA has a self-cleavage of 0.97.
With GUUAACGGUCAUAGGCCAUGGAAACUAGGAGCACCACUUCGCUGCCAGUGAAGAAAUGAACAAAGAAAAUCUGGGCCAGGCAGGCAUCAAAAGAAAUAGUCUUGCGCUCAACCAGAAAGUCUGUAAUCAAUUUAAGGGUA the self-cleavage was 0.91.
With GUUAACGGUCAUAGGCCAUGGAAACUAGGAGCACCACUUCGCUGCCAGUGAAGAAAUGAACAAAGAAAAUCUGGGCCAGGCAGGCAUCAAAAGAAAUAGUCUUGCGCUCAACCAGAAAGUCCGUAAUCAUUUUAAGGGUA the self-cleavage was 1.25.
Variant GUUAACGGUCAUAGGCCAUGGAAACUAGGAGCACCACUUCGCUGCCAGCGAAGAAAUGAACAAAGAAAAUCUGGGCCAGGCAGGCAUCAAAAGAAAUAGUCUUGCGCUCAACCAGAAAGUCUGUAAUCAUUUUAAGGGUA has a self-cleavage of 1.71.
GUUAACGGUCAUAGGCCAUGGAAACUAGGAGCACCACUUCGCUGCCAGGGAAGAAAUGAACAAAGAAAAUCUGGGCCAGGCAGGCAUCAAAAGAAAUAGUCUUGCGCUCAACCAGAAAGUCUGUAAUCAUUUUAAGGGUA showed a self-cleavage of 0.44.
Work on GUUAACGGUCAUAGGCCAUGGAAACUAGGAGCACCACUUCGCUGCCAGAGAAGAAAUGAACAAAGAAAAUCUGGGCCAGGCAGGCAUCAAAAGAAAUAGUCUUGCGCUCAACCAGAAAGUCUGUAAUCAUUUUAAGGGUA yielded a self-cleavage of 1.64.
Work on GUUAACGGUCAUAGGCCAUGGAAACUAGGAGCACCACUUCGCUGCCAGUGAAGAAAUGAACAAAGAAAAUCUGGGCCAGGCAGGCAUCAAAAGAAAUAGUCUUGCGCUCAACCAGAAAGUCUGUAAACAUUUUAAGGGUA yielded a self-cleavage of 2.07.
GUUAACGGUCAUAGGCCAUGGAAACUAGGAGCACCACUUCGCUGCCAGUGAAGAAAUGAACAAAGAAAAUCUGGGCCAGGCAGGCAUCAAAAGAAAUAGUCUUGCGCUCAACCAGAAAGUCUGUAACCAUUUUAAGGGUA gave a self-cleavage of 1.08.
Work on GUUAACGGUCAUAGGCCAUGGAAACUAGGAGCACCACUUCGCAGCCAGUGAAGAAAUGAACAAAGAAAAUCUGGGCCAGGCAGGCAUCAAAAGAAAUAGUCUUGCGCUCAACCAGAAAGUCUGUAAUCAUUUUAAGGGUA yielded a self-cleavage of 1.55.
Work on GUUAACGGUCAUAGGCCAUGGAAACUAGGAGCACCAGUUCGCUGCCAGUGGAGAAAUGAACAAAGAAAAUCUGGGCCAGGCAGGCAUCAAAAGAAAUAGUCUUGCGCUCAACCAGAAAGUCUGUAAUCAUUUUAAGGGUA yielded a self-cleavage of 1.31.
For GUUAACGGUCAUAGGCCAUGGAAACUAGGAGCACCACUUCGCUGCCAGUGAAGAAAUGAACAAAGAAAAACUGGGCCAGGCAGGCAUCAAAAGAAAUAGUCUUGCGCUCAACCAGAAAGUCUGUAAUCAUUUUAAGGGUA, the self-cleavage was 1.1.
GUUAACGGUCAUAGGCCAUGGAAACUAGGAGCACCACUUCGCUGCCAGUGAAGAAAUGAACAAAGAAAAUCUGGGCCAGGCAGGCAUCAAAAGAAACAGUCUUGCGCUCAACCAGAAAGUCUGUAAUCAUUUUAAGGGUA gave a self-cleavage of 2.06.
In the case of GUUAACGGUCAUAGGCCAUGGAAACUAGGAGCACCACUUCGCUGCCAGUGAAGAAAUGAACAAAGAAAAUCUGGGCCAGGCAGGCAUCAAAAGAAAUAGUCUUGCGCUCAACCAGAAAGUCUGUAAUCAUUAUAAGGGUA, the self-cleavage is reported as 1.34.
In the case of GUUAACGGUCAUAGGCCAUGGAAACUAGGAGCACCACUUCGCUGCCAGUGAAGAAAUGAACAAAGAAAAUCUGGGCCAGGCAGGCAUCAAAAGAAAUAGUCUUGCGCUCAACCAGAAAGUCUGUAAUCAUUCUAAGGGUA, the self-cleavage is reported as 1.54.
For GUUAACGGUCAUAGGCCAUGGAAACUAGGAGCACCACUUCGCUGCCAGUGAAGAAAUGAACAAAGAAAAUCUGGGCCAGGCAGGCAUCAAAAGAAAUAGUCUUGCGCUCAACCAGAAAGCCUGUAAUCAUUUUAAGGGUA, the self-cleavage was 0.84.
Variant GUUAACGGUCAUAGGCCAUGGAAACUAGGAGCACCACUUCGCUGCCAGUGAAGAAAUGAACAAAGAAAAUCUGGGCCAGGCAGGCAUCAAAAGAAAUAGUCUUGCGCUCAACCAGAAAGACUGUAAUCAUUUUAAGGGUA has a self-cleavage of 2.58.
